{
  "source": "patent US20030158083A1",
  "about": "“Method of effecting angiogenesis by modulating the function of a novel endothelia phosphatase” (The Procter & Gamble Company, priority 2002, published 2003)",
  "molecules": {"B1": {"name": "KAPh: novel human KDR Associated Phosphatase protein, full-length sequence SEQ ID NOS 1 and 2 (protein, listed as Homo sapiens)", "chain": "MKPRKAEPHSFREKVFRKKPPVCAVCKVTIDGTGVSCRVCKVATHRKCEAKVTSACQALPPVELRRNTAPVRRIEHLGSTKSLNHSKQRSTLPRSFSLDPLMERRWDLDLTYVTERILAAAFPARPDEQRHRGHLRELAHVLQSKHRDKYLLFNLSEKRHDLTRLNPKVQDFGWPELHAPPLDKLCSICKAMETWLSADPQHVVVLYCKGNKGKLGVIVSAYMHYSKISAGADQALATLTMRKFCEDKVATELQPSQRRYISYFSGLLSGSIRMNSSPLFLHYVLIPMLPAFEPGTGFQPFLKIYQSMQLVYTSGVYHIAGPGPQQLCISLEPALLLKGDVMVTCYHKGGRGTDRTLVFRVQFHTCTIHGPQLTFPKDQLDEAWTDERFPFQASVEFVFSSSPEKIKGSTPRNDPSVSVDYNTTEPAVRWDSYENFNQHHEDSVDGSLTHTRGPLDGSPYAQVQRPPRQTPPAPSPEPPPPPMLSVSSDSGHSSTLTTEPAAESPGRPPPTAAERQELDRLLGGCGVASGGRGAGRETAILDDEEQPTVGGGPHLGVYPGHRPGLSRHCSCRQGYREPCGVPNGGYYRPEGTLERRRLAYGGYEGSPQGYAEASMEKRRLCRSLSEGLYPYPPEMGKPATGDFGYRAPGYREVVILEDPGLPALYPCPACEEKLALPTAALYGLRLEREAGEGWASEAGKPLLHPVRPGHPLPLLLPACGHHHAPMPDYSCLKPPKAGEEGHEGCSYTMCPEGRYGHPGYPALVTYSYGGAVPSYCPAYGRVPHSCGSPGEGRGYPSPGAHSPRAGSISPGSPPYPQSRKLSYEIPTEEGGDRYPLPGHLASAGPLASAESLEPVSWREGPSGHSTLPRSPRDAPCSASSELSGPSTPLHTSSPVQGKESTRRQDTRSPTSAPTQRLSPGEALPPVSQAGTGKAPELPSGSGPEPLAPSPVSPTFPPSSPSDWPQERSPGGHSDGASPRSPVPTTLPGLRHAPWQGPRGPPDSPDGSPLTPVPSQMPWLVASPEPPQSSPTPAFPLAASYDTNGLSQPPLPEKRHLPGPGQQPGPWGPEQASSPARGISHHVTFAPLLSDNVPQTPEPPTQESQSNVKFVQDTSKFWYKPHLSRDQAIALLKDKDPGAFLIRDSHSFQGAYGLALKVATPPPSAQPWKGDPVEQLVRHFLIETGPKGVKIKGCPSEPYFGSLSALVSQHSISPISLPCCLRILSKDPLEETPEAPVPTNMSTAADLLRQGAACSVLYLTSVETESLTGPQAVARASSAALSCSPRPTPAVVHFKVSAQGITLTDNQRKLFFRRHYPVNSITFSSTDPQDRRWTNPDGTTSKIFGFVAKKPGSPWENVCHLFAELDPDQPAGAIVTFITKVLLGQRK"}},
  "key": {"[1]": {"experiment": "Phosphatase activity with fluorogenic substrate DiFMUP", "type": "biochemical", "description": "Purified, recombinant KAPh phosphatase domain (amino acids 83-464 SEQ ID NO 4) (100 μg/mL) and full-length PTEN (amino acids 1-403) (100 μg/mL) were each mixed with a fluorogenic phosphatase substrate 6,8-difluoro-4-methylumbelliferyl phosphate (DiFMUP) (Molecular Probes, Eugene, Oreg.) at a final concentration of a 100 μM in assay buffer (10 mM sodium acetate, pH 6.0, 150 mM NaCl, 5 mM DTT). Following incubation at ambient temperature for 15 or 60 min., the fluorescence intensity of the 6,8-difluoro-4-methylumbelliferone (DiFMU) product was measured in triplicate and used as an assessment of phosphatase activity. A Victor 5 microplate reader from Wallac (Turku, Finland) was used to read the fluorescence intensity from 384-well microplates (Corning Inc., Corning, N.Y.)."}, "[2]": {"experiment": "Peptide phosphatase assay (BIOMOL green)", "type": "biochemical", "details": "any peptide substrates examined; data not shown"}, "VEGF receptor-2 [3]": {"biological_target": "T1, VEGF receptor-2 (Homo sapiens, UniProt P35968)", "T1 construct": "Co-immunoprecipitation of full-length KAPh with full-length VEGF receptor-2; expressed in transfected cells", "T1 sequence (P35968 20-1356)": "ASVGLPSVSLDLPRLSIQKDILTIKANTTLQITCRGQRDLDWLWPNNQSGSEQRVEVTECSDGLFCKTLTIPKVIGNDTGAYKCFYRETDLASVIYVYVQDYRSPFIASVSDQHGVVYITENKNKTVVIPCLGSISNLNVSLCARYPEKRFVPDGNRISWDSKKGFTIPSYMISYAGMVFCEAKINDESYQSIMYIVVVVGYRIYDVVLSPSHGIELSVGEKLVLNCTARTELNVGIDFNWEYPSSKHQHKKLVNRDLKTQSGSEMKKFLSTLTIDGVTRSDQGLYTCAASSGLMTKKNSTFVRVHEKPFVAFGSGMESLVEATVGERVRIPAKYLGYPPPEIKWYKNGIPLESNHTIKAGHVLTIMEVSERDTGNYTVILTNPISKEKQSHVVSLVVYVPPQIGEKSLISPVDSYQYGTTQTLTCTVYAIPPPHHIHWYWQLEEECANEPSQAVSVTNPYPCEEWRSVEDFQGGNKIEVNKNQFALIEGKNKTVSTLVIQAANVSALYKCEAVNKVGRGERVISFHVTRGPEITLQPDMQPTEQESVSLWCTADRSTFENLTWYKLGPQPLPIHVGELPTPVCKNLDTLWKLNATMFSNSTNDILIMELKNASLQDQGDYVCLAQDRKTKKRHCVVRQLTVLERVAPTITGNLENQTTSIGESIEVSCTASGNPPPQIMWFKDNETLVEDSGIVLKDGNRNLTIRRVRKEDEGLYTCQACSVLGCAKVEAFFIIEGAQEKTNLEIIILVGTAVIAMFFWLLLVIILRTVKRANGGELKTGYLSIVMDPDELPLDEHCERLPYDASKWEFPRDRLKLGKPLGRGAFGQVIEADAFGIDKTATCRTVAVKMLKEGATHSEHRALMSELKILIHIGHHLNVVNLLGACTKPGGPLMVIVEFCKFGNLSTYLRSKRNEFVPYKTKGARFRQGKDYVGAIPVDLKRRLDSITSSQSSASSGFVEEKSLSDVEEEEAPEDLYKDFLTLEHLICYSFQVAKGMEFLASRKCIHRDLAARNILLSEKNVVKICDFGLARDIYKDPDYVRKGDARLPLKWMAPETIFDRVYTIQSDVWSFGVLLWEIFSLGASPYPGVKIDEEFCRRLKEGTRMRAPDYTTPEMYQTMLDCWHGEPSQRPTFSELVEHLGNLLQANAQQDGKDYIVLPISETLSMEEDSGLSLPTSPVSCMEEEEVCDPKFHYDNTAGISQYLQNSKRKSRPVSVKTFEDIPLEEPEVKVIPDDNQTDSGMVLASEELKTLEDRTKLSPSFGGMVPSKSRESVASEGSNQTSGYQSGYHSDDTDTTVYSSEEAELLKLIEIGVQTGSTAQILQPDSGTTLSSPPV", "experiment": "Dephosphorylation of 32P-labeled VEGF receptor-2", "type": "biochemical", "details": "incubated overnight; data not shown"}, "Tie 1": {"test_system": "Tie 1", "experiment": "GST pull-down association assay, Tie 1", "type": "binding, human", "details": "wild-type and kinase-inactive mutant", "description": "Recombinant VEGFR-1 kinase (wild-type and K862R mutant), VEGFR2 kinase (wild-type and K870R mutant), Tie1 kinase (wild-type and K871R mutant), and Tie2 kinase (wild-type and K856R mutant) were expressed as glutathione S-transferase (GST) fusion proteins in Sf9 cells using a baculovirus expression system. Briefly, the intracellular domain of each receptor tyrosine kinase was generated as an in-frame GST fusion using the pAcGHLT baculovirus transfer vector (Pharmingen, San Diego, Calif.). Each baculovirus transfer vector construct was cotransfected with BaculoGold (Pharmingen, San Diego, Calif.) linearized AcNPV baculovirus DNA into Sf9 cells for the generation of recombinant baculoviruses. Five days post-transfection, recombinant baculoviruses were harvested and amplified by re-infection of Sf9 cells. Each amplified baculovirus was then used to infect Sf9 cells for the expression of the recombinant kinases. […]\nThe immobilized, autophosphorylated kinases were then incubated with HEK 293 cell lysates which overexpressed either the KAPh SH2 domain or KAPh full-length protein. […] KAPh protein that associated with the recombinant kinases was analyzed by Western blot using a chemiluminescence detection system (Amersham Pharmacia, Piscataway, N.J.)."}, "[4]": {"biological_target": "T2, human VEGFR2 intracellular domain (Homo sapiens, UniProt P35968)", "T2 construct": "expressed in transfected cells; host or cells: yeast strain MaV203 (pDBLeu-hVEGFR2)", "T2 sequence (P35968 790-1356)": "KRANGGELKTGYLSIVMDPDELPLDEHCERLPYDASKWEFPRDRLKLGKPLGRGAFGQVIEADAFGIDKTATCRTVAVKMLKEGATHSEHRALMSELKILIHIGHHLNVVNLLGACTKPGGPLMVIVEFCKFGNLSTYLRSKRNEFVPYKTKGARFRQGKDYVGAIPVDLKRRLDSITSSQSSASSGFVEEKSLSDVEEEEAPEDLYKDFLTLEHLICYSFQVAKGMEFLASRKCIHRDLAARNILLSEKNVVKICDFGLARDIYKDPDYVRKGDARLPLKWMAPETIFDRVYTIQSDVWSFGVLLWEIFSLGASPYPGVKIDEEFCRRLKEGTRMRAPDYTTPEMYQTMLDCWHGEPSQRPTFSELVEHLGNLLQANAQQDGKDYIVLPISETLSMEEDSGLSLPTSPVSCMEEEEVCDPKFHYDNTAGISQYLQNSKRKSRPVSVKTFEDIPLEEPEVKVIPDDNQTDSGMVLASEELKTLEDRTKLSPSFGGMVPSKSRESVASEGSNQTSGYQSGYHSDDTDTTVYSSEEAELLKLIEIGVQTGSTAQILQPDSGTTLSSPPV", "experiment": "Yeast two-hybrid interaction with intracellular domain of VEGFR2", "type": "binding", "details": "growth on histidine-deficient and uracil-deficient media", "description": "(§1) All two-hybrid plasmid constructs used the pDBLeu and pPC86 yeast expression vectors as a part of the ProQuest Two-Hybrid System (Life Technologies, Rockville, Md.). A cDNA encoding the intracellular domain of human VEGFR2 was generated by PCR from a human VEGFR2/pJFE14 construct, obtained from Regeneron Pharmaceuticals (Tarrytown, N.Y.), and subcloned into the yeast bait vector downstream of the GAL4 DNA-binding domain. A human umbilical vein endothelial cell (HUVEC) cDNA library (in pPC86) was co-transformed with pDBLeu-hVEGFR2 into the MaV203 strain of yeast. Proteins that interacted with the intracellular domain of human VEGFR2 were selected and tested for specificity according to the manufacturer's instructions.\n(§2) In an ongoing effort to understand mechanisms by which the biological activity of VEGF is mediated through the VEGF receptor-2 (KDR/Flk-1), we used the entire cytoplasmic domain of KDR as bait to screen human umbilical vein endothelial cell (HUVEC) and human fetal brain cDNA libraries in the yeast two-hybrid system. The intracellular domain of human VEGFR2 (790-1357 SEQ ID NO 8) was constructed in the bait plasmid (pDBLeu) and the cDNA libraries were constructed in the prey plasmid (pPC86). Following transformation of yeast, positive clones were selected by growth on histidine-deficient media and for the expression of β-galactosidase activity (X-gal selection). […]"}, "[5]": {"biological_target": "T3, human VEGFR2 intracellular domain (Homo sapiens, UniProt P35968, K868R)", "T3 construct": "expressed in transfected cells; host or cells: yeast strain MaV203 (pDBLeu-hVEGFR2)", "T3 sequence (P35968 790-1356 K868R)": "as the sequence (P35968 790-1356) above, with K79R counted along it", "experiment": "Yeast two-hybrid interaction with intracellular domain of VEGFR2", "type": "binding", "details": "ATP binding site mutated (K870R)", "description": "as §1, §2"}, "VEGF receptor-2 [6]": {"biological_target": "T1, VEGF receptor-2", "experiment": "Co-immunoprecipitation with VEGF receptor-2 in HEK 293 cells", "type": "cell-based", "details": "HEK 293 VEGFR2 stable cells, 1 nM VEGF 5 min or untreated, anti-VEGFR2 IP", "description": "Human umbilical vein endothelial cells (HUVEC) obtained from Clonetics (Walkersville, Md.) were cultured in endothelial growth medium (Clonetics) and were used up to passage 3. HEK 293 cells obtained from the American Type Culture Collection (Manasses, Va.) were cultured in cell growth medium (Dulbecco's modified Eagle's medium supplemented with 10% fetal bovine serum, 1% L-glutamine, 1% nonessential amino acids, and 1% antimycotics). For stable expression, hVEGFR2 was subcloned into pLNCX (Clontech, Palo Alto, Calif.), […] transfected into HEK 293 cells, and selected in the presence of Geneticin. The HEK 293 VEGFR2 clonal cell line was transiently transfected with either the SH2 domain or full-length KAPh in the mammalian expression vector pcDNA4/HisMax (Invitrogen, Carlsbad, Calif.). All constructs were transfected using LipofectAMINE PLUS (Life Technologies, Rockville, Md.) in serum-free DMEM according to the manufacturer's instructions.\nHEK 293 cells that stably expressed the VEGF receptor-2 were transiently transfected to express the KAPh SH2 domain or full-length KAPh were treated with 1 nM VEGF or left untreated for 5 min. The cells were lysed in 1% triton lysis buffer with protease inhibitors. Insoluble debris was removed from the lysates by centrifugation at 14,000×g for 10 min at 4° C. […]"}},
  "data": [
    {"molecule": "B1", "values": [
      {"measurement": "fluorescent product (DiFMU) generated, fold over buffer control", "setting": "[1]; 100 μg/mL protein, 100 μM DiFMUP, pH 6.0, ambient temperature, 60 min incubation", "result": "~10", "unit": "fold"},
      {"measurement": "phosphatase activity against DiFMUP relative to PTEN", "setting": "[1]; KAPh versus PTEN", "result": "1- to 2 fold"},
      {"measurement": "phosphatase activity using peptide substrates", "setting": "[2]", "result": "unable to detect significant, reproducible phosphatase activity"},
      {"measurement": "change in phosphorylation of 32P-labeled VEGF receptor-2", "setting": "VEGF receptor-2 [3]", "result": "unable to detect a change in phosphorylation"},
      {"measurement": "interaction with GST Tie 1", "setting": "Tie 1", "result": "no interaction"},
      {"measurement": "yeast two-hybrid interaction with wild-type KDR", "setting": "[4]", "result": "robust protein-protein interaction"},
      {"measurement": "yeast two-hybrid interaction with KDR K870R mutant", "setting": "[5]", "result": "essentially no significant interaction"},
      {"measurement": "co-immunoprecipitation with VEGFR2", "setting": "VEGF receptor-2 [6]", "result": "detected in cells stimulated with VEGF"}
    ]}
  ]
}
